Results as given in publication PMC3749527.

Biological target: Respiratory syncytial virus nucleoprotein N, R234A mutant (human respiratory syncytial virus) (UniProt P03418)

“Respiratory syncytial virus nucleoprotein N, R234A mutant (from UniProt P03418 1-391) (natural protein)” was tested, and the polymerase activity (viral RNA synthesis) in an HRSV plasmid-based minigenome luciferase assay in BSRT7/5 cells, compared to wt N was 68 % of wt N.
